Three molecules from US20230242601A1, “PEPTIDE USED TO PREVENT OR TREAT SYNUCLEINOPATHY” (TOHOKU UNIVERSITY, priority 2020, published 2023) can be followed below.

Usually Kd stands for the free concentration of one partner at which half of the binding sites on the other are occupied at equilibrium, for simple one-to-one binding. A low value points to a tighter complex.

For the assay, the target named is FABP3 fused with a His-tag at the N-terminus. Kind of assay: QCM, peptide added to immobilised FABP3.
Sequence of FABP3 fused with a His-tag at the N-terminus (P05413 2-133): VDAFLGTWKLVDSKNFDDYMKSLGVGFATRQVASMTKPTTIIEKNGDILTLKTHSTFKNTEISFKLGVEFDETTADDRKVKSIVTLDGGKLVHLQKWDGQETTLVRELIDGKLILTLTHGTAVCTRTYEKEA

Molecule EEGYQDYEPEA [SynP130-140 peptide] registered a Kd of 0.2 nM. In turn, EEGFQDYEPEA [SynP130-140 Y133F] showed a Kd of 0.1 nM and a fold stronger binding affinity against the natural SynP130-140 of 2 fold.

The molecule EEGFQDFEPEA [SynP130-140 Y133F/Y136F] yielded a fold stronger binding affinity against the natural SynP130-140 of 2 fold.
